Source: US20190153061A1

Molecular target: B-cell maturation antigen (BCMA) expressed on cells (human), Q02223
Assay: cell-based or functional assay

Chain of B-cell maturation antigen (BCMA) expressed on cells (human), Q02223 (Q02223 whole entry): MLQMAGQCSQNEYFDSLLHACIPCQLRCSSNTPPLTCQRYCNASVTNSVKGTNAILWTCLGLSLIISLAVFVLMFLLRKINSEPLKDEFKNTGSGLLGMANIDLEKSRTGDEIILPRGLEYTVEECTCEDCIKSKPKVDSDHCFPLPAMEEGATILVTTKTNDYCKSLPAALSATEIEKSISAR

Row | JNL binding assay, ratio to K562; K562-BCMA | JNL binding assay, ratio to K562; NCI-H929 | JNL binding assay, ratio to K562; RPMI 8226 | Proliferation, CD3 ratio to no target; K562-BCMA | Proliferation, CD3 ratio to no target; KMS11-luc | Proliferation, CD3 ratio to no target; NCI-H929 | Proliferation, CD3 ratio to no target; RPMI 8226 | Proliferation, CD4 ratio to no target; K562-BCMA | Proliferation, CD4 ratio to no target; KMS11-luc | Binder | Cell killing EC50; KMS11-luc
1 | 2.81 | 2.65 | 3.31 | 4.12 | 3.42 | 3.86 | 3.93 | 5.73 | 3.97 | BCMA-14 CAR (139113) (protein) EVQLVETGGGLVQPGGSLRLSCAVSGFALSNHGMSWVRRAPGKGLEWVSGIVYSGSTYYAASVKGRFTISRDNSRNTLYLQMNSLRPEDTAIYYCSAHGGESDVWGQGTTVTVSSASGGGGSGGRASGGGGSETTLTQSPATLSVSPGERATLSCRASQSVGSNLAWYQQKPGQGPRLLIYGASTRATGIPARFSGSGSGTEFTLTISSLQPEDFAVYYCQQYNDWLPVTFGQGTKVEIKTTTPAPRPPTPAPTIASQPLSLRPEACRPAAGGAVHTRGLDFACDIYIWAPLAGTCGVLLLSLVITLYCKRGRKKLLYIFKQPFMRPVQTTQEEDGCSCRFPEEEEGGCELRVKFSRSADAPAYKQGQNQLYNELNLGRREEYDVLDKRRGRDPEMGGKPRRKNPQEGLYNELQKDKMAEAYSEIGMKGERRRGKGHDGLYQGLSTATKDTYDALHMQALPPR | 0.12 not printed
2 | 3.15 | 2.27 | 3.54 | 5.52 | 5.41 | 6.52 | 5.83 | 8.5 | 5.54 | BCMA-4NP tool CAR (126021) (protein, not shown: a dimerising Fc or GST) QVQLVQSGAEVKKPGSSVKVSCKASGGTFSNYWMHWVRQAPGQGLEWMGATYRGHSDTYYNQKFKGRVTITADKSTSTAYMELSSLRSEDTAVYYCARGAIYNGYDVLDNWGQGTLVTVSSGGGGSGGGGSGGGGSGGGGSDIQMTQSPSSLSASVGDRVTITCSASQDISNYLNWYQQKPGKAPKLLIYYTSNLHSGVPSRFSGSGSGTDFTLTISSLQPEDFATYYCQQYRKLPWTFGQGTKLEIKR | 0.12 not printed
3 | 3.17 | 2.78 | 3.36 | 2.9 | 2.76 | 2.98 | 3.27 | 3.42 | 2.94 | BCMA-12 CAR (139111) (protein) EVQLLESGGGLVQPGGSLRLSCAVSGFALSNHGMSWVRRAPGKGLEWVSGIVYSGSTYYAASVKGRFTISRDNSRNTLYLQMNSLRPEDTAIYYCSAHGGESDVWGQGTTVTVSSASGGGGSGGRASGGGGSDIVMTQTPLSLSVTPGQPASISCKSSQSLLRNDGKTPLYWYLQKAGQPPQLLIYEVSNRFSGVPDRFSGSGSGTDFTLKISRVEAEDVGAYYCMQNIQFPSFGGGTKLEIKTTTPAPRPPTPAPTIASQPLSLRPEACRPAAGGAVHTRGLDFACDIYIWAPLAGTCGVLLLSLVITLYCKRGRKKLLYIFKQPFMRPVQTTQEEDGCSCRFPEEEEGGCELRVKFSRSADAPAYKQGQNQLYNELNLGRREEYDVLDKRRGRDPEMGGKPRRKNPQEGLYNELQKDKMAEAYSEIGMKGERRRGKGHDGLYQGLSTATKDTYDALHMQALPPR | 0.22 not printed

Same assay, conditions: not given

Row | Proliferation, CD4 ratio to no target; NCI-H929 | Proliferation, CD4 ratio to no target; RPMI 8226 | Proliferation, CD8 ratio to no target; K562-BCMA | Proliferation, CD8 ratio to no target; KMS11-luc | Proliferation, CD8 ratio to no target; NCI-H929 | Proliferation, CD8 ratio to no target; RPMI 8226 | Binder
4 | 5.07 | 4.84 | 2.65 | 2.83 | 2.73 | 3.03 | BCMA-14 CAR (139113) (protein) EVQLVETGGGLVQPGGSLRLSCAVSGFALSNHGMSWVRRAPGKGLEWVSGIVYSGSTYYAASVKGRFTISRDNSRNTLYLQMNSLRPEDTAIYYCSAHGGESDVWGQGTTVTVSSASGGGGSGGRASGGGGSETTLTQSPATLSVSPGERATLSCRASQSVGSNLAWYQQKPGQGPRLLIYGASTRATGIPARFSGSGSGTEFTLTISSLQPEDFAVYYCQQYNDWLPVTFGQGTKVEIKTTTPAPRPPTPAPTIASQPLSLRPEACRPAAGGAVHTRGLDFACDIYIWAPLAGTCGVLLLSLVITLYCKRGRKKLLYIFKQPFMRPVQTTQEEDGCSCRFPEEEEGGCELRVKFSRSADAPAYKQGQNQLYNELNLGRREEYDVLDKRRGRDPEMGGKPRRKNPQEGLYNELQKDKMAEAYSEIGMKGERRRGKGHDGLYQGLSTATKDTYDALHMQALPPR
5 | 8.98 | 8.5 | 3.06 | 5.2 | 4.31 | 3.49 | BCMA-4NP tool CAR (126021) (protein, not shown: a dimerising Fc or GST) QVQLVQSGAEVKKPGSSVKVSCKASGGTFSNYWMHWVRQAPGQGLEWMGATYRGHSDTYYNQKFKGRVTITADKSTSTAYMELSSLRSEDTAVYYCARGAIYNGYDVLDNWGQGTLVTVSSGGGGSGGGGSGGGGSGGGGSDIQMTQSPSSLSASVGDRVTITCSASQDISNYLNWYQQKPGKAPKLLIYYTSNLHSGVPSRFSGSGSGTDFTLTISSLQPEDFATYYCQQYRKLPWTFGQGTKLEIKR
6 | 3.41 | 3.66 | 1.51 | 2.11 | 1.76 | 2.12 | BCMA-12 CAR (139111) (protein) EVQLLESGGGLVQPGGSLRLSCAVSGFALSNHGMSWVRRAPGKGLEWVSGIVYSGSTYYAASVKGRFTISRDNSRNTLYLQMNSLRPEDTAIYYCSAHGGESDVWGQGTTVTVSSASGGGGSGGRASGGGGSDIVMTQTPLSLSVTPGQPASISCKSSQSLLRNDGKTPLYWYLQKAGQPPQLLIYEVSNRFSGVPDRFSGSGSGTDFTLKISRVEAEDVGAYYCMQNIQFPSFGGGTKLEIKTTTPAPRPPTPAPTIASQPLSLRPEACRPAAGGAVHTRGLDFACDIYIWAPLAGTCGVLLLSLVITLYCKRGRKKLLYIFKQPFMRPVQTTQEEDGCSCRFPEEEEGGCELRVKFSRSADAPAYKQGQNQLYNELNLGRREEYDVLDKRRGRDPEMGGKPRRKNPQEGLYNELQKDKMAEAYSEIGMKGERRRGKGHDGLYQGLSTATKDTYDALHMQALPPR
